{"source": "patent US20040001822A1", "about": "“Y1-isolated molecules comprising epitopes containing sulfated moieties, antibodies to such epitopes, and uses thereof” (priority 2000, published 2004)", "molecules": {"B1": {"name": "Y1 scFv: fully human scFv clone binding platelets and myelogenous leukemia cells, SEQ ID NO: 25 (protein, listed as Homo sapiens)", "scFv": "MKYLLPTAAAGLLLLAAQPAMAEVQLVESGGGVVRPGGSLRLSCAASGFTFDDYGMSWVRQAPGKGLEWVSGINWNGGSTGYADSVKGRFTISRDNAKNSLYLQMNSLRAEDTAVYYCARMRAPVIWGQGTLVTVSRGGGGSGGGGSGGGGSSELTQDPAVSVALGQTVRITCQGDSLRSYYASWYQQKPGQAPVLVIYGKNNRPSGIPDRFSGSSSGNTASLTITGAQAEDEADYYCNSRDSSGNHVVFGGGTKLTVLGAAAEQKLISEEDLNGAA"}}, "key": {"[1]": {"system": "washed platelets", "experiment": "Ristocetin-induced agglutination of washed platelets after preincubation with scFv", "assay_type": "cell-based, human", "experimental": "Aggregation is determined in PRP due to the presence of thrombotic agents, while agglutination is determined in washed platelets. The effect of Y1 (scFv) on agglutination of washed platelets was tested at various concentrations of Y1. Platelets were pre-incubated with Y1 scFv, Y17 scFv, Y16-scFv, or a control TM-1 scFv for 4 min at 37° C. before being exposed to ristocetin, an inducer of platelet agglutination and aggregation.\nPlatelet concentrate in acid-citrate-dextrose (ACD) was obtained from a blood bank, platelets were isolated, washed once in buffer containing ACD and saline in a ratio of 1:7. The platelets were centrifuged at 800 g for 10 min after each wash and were resuspended in Tyrodes solution (2 mM MgCl2, 137 mM NaCl, 2.68 mM KCl, 3 mM NaH2PO4, 0.1% glucose, 5 mM Hepes and 0.35% albumin, pH 7.35) and count the number of cells.\nFor platelet aggregation studies, platelet rich plasma (PRP) and washed platelets were stirred at 500 rpm at 37° C. in whole blood Lumiaggregometer (Chronolog, Havertown,Pa.). The difference in light transmission through the platelet suspension and suspending medium was taken as 100% aggregation. The effect of Y1 on platelet aggregation was evaluated by addition of different concentration of Y1 before the addition of agonist, and the effect was recorded for four minutes.\nThe effect of Y17-scFv on vWF-dependent agglutination of platelets was tested at different concentrations of Y17."}, "[2]": {"system": "primary leukemia cells", "experiment": "FACS binding of Y1 to primary leukemia cells of patients", "set-up": "species or system human", "experimental": "Samples provided from hospitals. Patients sample 30 μl/tube. Add 5 μl/tube of CD33-APC (for AML) or CD19-APC (for B-CLL) or CD38-APC (for Multiple Myeloma). Add 5 μl/tube of CD45-PerCp and 5 μl of scFv-Y1 or control scFv-N31 or CD162-PE (KPL1). Incubate tubes 30 minutes at 4° C. with low shaking. Wash by adding 2 ml PBS and spin 5 minutes at 1200 rpm. Discard supernatant.\nFor a one step assay continue with the lysis step:\nAdd 500 μl BD Lysine solution diluted 1:10 with ddH2O (300 μl to patient sample). Vortex at high speed and incubate 12 minutes at 4° C. Wash as above. Discard supernatant. And add 500 μl PBS. The samples are read in the FACS using blood sample acquisition setup according to international standards.\nFor two or more assays: working buffer is PBS+1% BSA+0.05% sodium azide. Incubations and wash as above.\nLysis of the red blood cells is the final step in the assay, followed by resuspension with 500 μl PBS."}, "[3]": {"system": "Glycocalicin (GC)", "sequence (P07359 17-298 limits assumed)": "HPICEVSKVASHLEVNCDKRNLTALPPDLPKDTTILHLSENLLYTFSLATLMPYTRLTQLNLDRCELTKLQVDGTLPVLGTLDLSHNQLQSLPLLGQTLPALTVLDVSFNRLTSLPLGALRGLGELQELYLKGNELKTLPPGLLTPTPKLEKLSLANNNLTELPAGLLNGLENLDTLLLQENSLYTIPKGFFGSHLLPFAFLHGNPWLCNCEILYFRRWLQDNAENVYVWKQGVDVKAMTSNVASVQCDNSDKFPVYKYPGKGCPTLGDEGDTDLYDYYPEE", "experiment": "Western blot with Y1 on enzyme-treated glycocalicin", "assay_type": "binding, human", "conditions": "O-Sialo glycoprotein endopeptidase, 30′ at 37° C.", "excerpt": "(§1) Y1 ligand was further characterized using enzymatic treatments with proteases, glycanases, and […]; Western blotting with Y1, anti-CD42 antibodies, anti-CD162 antibodies and 181, immunoprecipitation using Y1 and anti-CD162 antibodies; FACS analysis using Y1 anti-CD162 antibodies; and sequencing.\n(§2) The table below summarizes the biochemical experiments preformed to characterize and localize the Y1 binding site on KG-1 cells.\n(§3) Western Blot Analysis with Y1 on SDS-PAGE Reducing Gels\n(§4) The nitrocellulose membrane was blocked using 5% skim milk for one hour at room temperature. The membrane was then washed 3 times for 5 minutes each with 0.05% Tween 20 in PBS at room temperature. The membrane was incubated with 5 μg/ml Y1-biotin (or 181-biotin) in 2% skim milk in PBS for one hour at room temperature. The membrane was then washed 3 times for 5 minutes each with cold 0.05% Tween 20 in PBS in the cold room (about 4 to about 10° C.). The membrane was then incubated in the cold room with a 1:1000 dilution of SAV-HRP (streptavidin-HRP) (at a final concentration of […]) in 2% skim milk, 0.05% Tween. The dilution was carried out at room temperature (about 25° C.), then the diluted SAV-HRP was cooled on ice for 10-15 minutes before use. The incubation was carried out for 1 hour with gentle shaking. After the incubation with SAV-HRP, the membrane was washed, as above. […]"}, "[4]": {"experiment": "Western blot with Y1 on aryl-sulfatase-treated heparin-BSA", "assay_type": "binding", "conditions": "18 hr at 22° C.", "excerpt": "as §1, §2, §3, §4"}, "[5]": {"system": "KG-1 cells", "experiment": "Binding competition of Y1 forms on KG-1 cells", "set-up": "species or system human", "conditions": "Y1 IgG-Biotin 50 ng; Y1 scFvs 5 μg and 10 μg", "excerpt": "To compare the binding of the scFv monomer (also referred to as CONY1) with the Y1 dimer, binding competition experiments were done in vitro on KG-1 cells. In addition, these experiments also compared the binding of the full Y1 IgG to the scFv Y1 monomers. To perform this study, a Y1 IgG was labeled with biotin."}, "[6]": {"system": "Jurkat cells", "experiment": "FACS binding of IgG-Y1 compared with scFv-Y1", "set-up": "species or system human", "conditions": "5 ng IgG-Y1 versus 1 μg scFv-Y1, Jurkat cells", "experimental": "Binding of full size IgG-Y1 molecule: Binding experiments were performed to determine the level of binding of the IgG-Y1 molecule compared to the binding level of the scFv-Y1 molecule. A two-step staining procedure was employed, wherein 5 ng of IgG-Y1 were reacted with both RAJI cells (negative control, FIG. 44) and Jurkat cells (Y1 positive cells, FIG. 44). For detection, PE-labeled goat anti-human IgG was used. Similarly, 1 μg of scFv-Y1 was reacted with Jurkat cells (FIG. 44), and PE-labeled rabbit anti-scFv was used for detection."}}, "data": [{"molecule": "B1", "values": [{"measurement": "% agglutination", "setting": "[1]; scFv 4 μg/ml", "value": 92, "unit": "%"}, {"measurement": "% inhibition", "setting": "[1]; scFv 4 μg/ml", "value": 8, "unit": "%"}, {"measurement": "% inhibition", "setting": "[1]; scFv 4 μg/ml, listed as Y1", "value": "No inhibition"}, {"measurement": "% agglutination", "setting": "[1]; scFv 12.5 μg/ml", "value": 67, "unit": "%"}, {"measurement": "% inhibition", "setting": "[1]; scFv 12.5 μg/ml", "value": 33, "unit": "%"}, {"measurement": "% inhibition", "setting": "[1]; scFv 12.5 μg/ml, listed as Y1", "value": "only partial inhibition"}, {"measurement": "% agglutination", "setting": "[1]; scFv 25 μg/ml, ristocetin = 100% agglutination", "value": 23, "unit": "%"}, {"measurement": "% Positive", "setting": "[2]; patients with AML", "value": 80, "unit": "%"}, {"measurement": "Number Positive", "setting": "[2]; patients with AML", "value": "60/75"}, {"measurement": "% Positive", "setting": "[2]; patients with B-Leukemia", "value": 67, "unit": "%"}, {"measurement": "Number Positive", "setting": "[2]; patients with B-Leukemia", "value": "29/43"}, {"measurement": "% Positive", "setting": "[2]; patients with Multiple Myeloma", "value": 100, "unit": "%"}, {"measurement": "Number Positive", "setting": "[2]; patients with Multiple Myeloma", "value": "16/16"}, {"measurement": "Reactivity with Y1", "setting": "[3]", "value": "Enhanced"}, {"measurement": "Reactivity with Y1", "setting": "[4]", "value": "Binds to"}, {"measurement": "competition with Y1 IgG-Biotin", "setting": "[5]", "value": "partially competed"}, {"measurement": "more molecules needed for a level of detection similar to that of IgG-Y1", "setting": "[6]", "value": "approximately 10^3 fold"}]}]}
